In the supplement of paper PMC10567573:

B1: CLCN6 (parent)
chain: TGLVGLFVDFFVRLFTQLKFGVVQ

Variants of: B1
Experiment: protein stability index of a GFP-peptide fusion (GPS, HEK-293T) (PSI 1-6); higher = more stable
Details: c terminus: a fixed tail appended
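Further: lentivirally expressed fusions sorted by FACS into six bins by GFP to DsRed ratio, PSI derived from sequencing read proportions per bin multiplied by bin number.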

| Variant | protein stability index |
| --- | --- |
| TGLVGLFVDFYVRLFTQLKFGVVQ [F11Y] | 2.32 |
| TGLVGLFVDFHVRLFTQLKFGVVQ [F11H] | 2.21 |
| TGLVGLFVDFKVRLFTQLKFGVVQ [F11K] | 3.06 |
| TGLVGLFVDFGVRLFTQLKFGVVQ [F11G] | 1.76 |
| TGLVGLFVDFCVRLFTQLKFGVVQ [F11C] | 2.93 |
| TGLVGLFVDFIVRLFTQLKFGVVQ [F11I] | 2.29 |
| TGLVGLFVDFTVRLFTQLKFGVVQ [F11T] | 2.01 |
| TGLVGLFVDFEVRLFTQLKFGVVQ [F11E] | 2.4 |
| TGLVGLFVDFWVRLFTQLKFGVVQ [F11W] | 2.35 |
| TGLVGLFVDFPVRLFTQLKFGVVQ [F11P] | 2.07 |
| TGLVGLFVDFDVRLFTQLKFGVVQ [F11D] | 4.03 |
| TGLVGLFVDFSVRLFTQLKFGVVQ [F11S] | 1.77 |
| TGLVGLFVDFLVRLFTQLKFGVVQ [F11L] | 2.32 |
| TGLVGLFVDFNVRLFTQLKFGVVQ [F11N] | 2.88 |
| TGLVGLFVDFRVRLFTQLKFGVVQ [F11R] | 2.75 |
| TGLVGLFVDFQVRLFTQLKFGVVQ [F11Q] | 3.25 |
| TGLVGLFVDFAVRLFTQLKFGVVQ [F11A] | 2.84 |
| TGLVGLFVDFVVRLFTQLKFGVVQ [F11V] | 2.65 |
| TGLVGLFVDFMVRLFTQLKFGVVQ [F11M] | 2.16 |
| TGLVGLFVDFFSRLFTQLKFGVVQ [V12S] | 2.45 |
| TGLVGLFVDFFKRLFTQLKFGVVQ [V12K] | 1.91 |
| TGLVGLFVDFFRRLFTQLKFGVVQ [V12R] | 2.04 |
| TGLVGLFVDFFGRLFTQLKFGVVQ [V12G] | 2.11 |
| TGLVGLFVDFFDRLFTQLKFGVVQ [V12D] | 1.73 |

| Variant | protein stability index |
| --- | --- |
| TGLVGLFVDFFMRLFTQLKFGVVQ [V12M] | 2.47 |
| TGLVGLFVDFFNRLFTQLKFGVVQ [V12N] | 1.56 |
| TGLVGLFVDFFIRLFTQLKFGVVQ [V12I] | 2.02 |
| TGLVGLFVDFFPRLFTQLKFGVVQ [V12P] | 1.78 |
| TGLVGLFVDFFERLFTQLKFGVVQ [V12E] | 1.96 |
| TGLVGLFVDFFCRLFTQLKFGVVQ [V12C] | 2.71 |
| TGLVGLFVDFFLRLFTQLKFGVVQ [V12L] | 1.95 |
| TGLVGLFVDFFWRLFTQLKFGVVQ [V12W] | 2.95 |
| TGLVGLFVDFFQRLFTQLKFGVVQ [V12Q] | 2.52 |
| TGLVGLFVDFFFRLFTQLKFGVVQ [V12F] | 2.1 |
| TGLVGLFVDFFARLFTQLKFGVVQ [V12A] | 2.11 |
| TGLVGLFVDFFYRLFTQLKFGVVQ [V12Y] | 3.07 |
| TGLVGLFVDFFHRLFTQLKFGVVQ [V12H] | 2.09 |
| TGLVGLFVDFFTRLFTQLKFGVVQ [V12T] | 2.08 |
| TGLVGLFVDFFVRSFTQLKFGVVQ [L14S] | 2.19 |
| TGLVGLFVDFFVRQFTQLKFGVVQ [L14Q] | 1.55 |
| TGLVGLFVDFFVRGFTQLKFGVVQ [L14G] | 1.68 |
| TGLVGLFVDFFVRDFTQLKFGVVQ [L14D] | 4.06 |
| TGLVGLFVDFFVRRFTQLKFGVVQ [L14R] | 1.86 |
| TGLVGLFVDFFVRPFTQLKFGVVQ [L14P] | 1.68 |
| TGLVGLFVDFFVRKFTQLKFGVVQ [L14K] | 2.34 |
| TGLVGLFVDFFVRAFTQLKFGVVQ [L14A] | 1.61 |
| TGLVGLFVDFFVRIFTQLKFGVVQ [L14I] | 2.25 |
| TGLVGLFVDFFVRVFTQLKFGVVQ [L14V] | 2.02 |

| Variant | protein stability index |
| --- | --- |
| TGLVGLFVDFFVRHFTQLKFGVVQ [L14H] | 1.85 |
| TGLVGLFVDFFVRCFTQLKFGVVQ [L14C] | 2.1 |
| TGLVGLFVDFFVRFFTQLKFGVVQ [L14F] | 2.57 |
| TGLVGLFVDFFVRTFTQLKFGVVQ [L14T] | 1.99 |
| TGLVGLFVDFFVRMFTQLKFGVVQ [L14M] | 2.27 |
| TGLVGLFVDFFVRNFTQLKFGVVQ [L14N] | 1.83 |
| TGLVGLFVDQFVRLFTQLKFGVVQ [F10Q] | 1.85 |
| TGLVGLFVDWFVRLFTQLKFGVVQ [F10W] | 2.7 |
| TGLVGLFVDTFVRLFTQLKFGVVQ [F10T] | 2 |
| TGLVGLFVDDFVRLFTQLKFGVVQ [F10D] | 2.75 |
| TGLVGLFVDIFVRLFTQLKFGVVQ [F10I] | 2.21 |
| TGLVGLFVDLFVRLFTQLKFGVVQ [F10L] | 1.77 |
| TGLVGLFVDPFVRLFTQLKFGVVQ [F10P] | 2.17 |
| TGLVGLFVDRFVRLFTQLKFGVVQ [F10R] | 2.82 |
| TGLVGLFVDAFVRLFTQLKFGVVQ [F10A] | 2.34 |
| TGLVGLFVDYFVRLFTQLKFGVVQ [F10Y] | 2.27 |
| TGLVGLFVDKFVRLFTQLKFGVVQ [F10K] | 1.98 |
| TGLVGLFVDCFVRLFTQLKFGVVQ [F10C] | 1.42 |
| TGLVGLFVDNFVRLFTQLKFGVVQ [F10N] | 2.32 |
| TGLVGLFVDSFVRLFTQLKFGVVQ [F10S] | 1.8 |
| TGLVGLFVDVFVRLFTQLKFGVVQ [F10V] | 2.42 |
| TGLVGLFVDHFVRLFTQLKFGVVQ [F10H] | 1.61 |
| TGLVGLFVDMFVRLFTQLKFGVVQ [F10M] | 1.81 |
| TGLVGLFVDEFVRLFTQLKFGVVQ [F10E] | 2.19 |

| Variant | protein stability index |
| --- | --- |
| TGLVGLFVDGFVRLFTQLKFGVVQ [F10G] | 1.29 |
| TGLVGLFVDFFVSLFTQLKFGVVQ [R13S] | 1.84 |
| TGLVGLFVDFFVTLFTQLKFGVVQ [R13T] | 2.19 |
| TGLVGLFVDFFVCLFTQLKFGVVQ [R13C] | 2.09 |
| TGLVGLFVDFFVDLFTQLKFGVVQ [R13D] | 1.83 |
| TGLVGLFVDFFVMLFTQLKFGVVQ [R13M] | 3.23 |
| TGLVGLFVDFFVPLFTQLKFGVVQ [R13P] | 3.13 |
| TGLVGLFVDFFVGLFTQLKFGVVQ [R13G] | 1.54 |
| TGLVGLFVDFFVQLFTQLKFGVVQ [R13Q] | 1.81 |
| TGLVGLFVDFFVVLFTQLKFGVVQ [R13V] | 1.76 |
| TGLVGLFVDFFVALFTQLKFGVVQ [R13A] | 2.04 |
| TGLVGLFVDFFVYLFTQLKFGVVQ [R13Y] | 2.62 |
| TGLVGLFVDFFVILFTQLKFGVVQ [R13I] | 2.59 |
| TGLVGLFVDFFVWLFTQLKFGVVQ [R13W] | 2.1 |
| TGLVGLFVDFFVKLFTQLKFGVVQ [R13K] | 2.73 |
| TGLVGLFVDFFVFLFTQLKFGVVQ [R13F] | 2.96 |
| TGLVGLFVDFFVHLFTQLKFGVVQ [R13H] | 2.22 |
| TGLVGLFVDFFVNLFTQLKFGVVQ [R13N] | 1.91 |
| TGLVGLFVDFFVELFTQLKFGVVQ [R13E] | 2.34 |
| TGLVGLFVYFFVRLFTQLKFGVVQ [D9Y] | 1.89 |
| TGLVGLFVWFFVRLFTQLKFGVVQ [D9W] | 1.51 |
| TGLVGLFVTFFVRLFTQLKFGVVQ [D9T] | 1.97 |
